“Also recorded” adds a separate entry of the source.
Assays:
[1] = target: T1, immobilized pro-uPA^S356A (Homo sapiens, UniProt P00749, S376A); assay: Kinetics of pro-uPA/uPAR interaction by surface plasmon resonance; format: binding; settings: soluble uPAR (residues 1-283), 20° C.
T1 construct: Coupling of pro-uPA^S356A to the sensor chip by EDC/NHS

[2] = target: endogenous β1 integrin on HEK293 cells (active state) (human) (UniProt P05556); assay: flow cytometry, HEK293 cells expressing uPAR^wt
endogenous β1 integrin on HEK293 cells (active state) (human), sequence (P05556 21-798): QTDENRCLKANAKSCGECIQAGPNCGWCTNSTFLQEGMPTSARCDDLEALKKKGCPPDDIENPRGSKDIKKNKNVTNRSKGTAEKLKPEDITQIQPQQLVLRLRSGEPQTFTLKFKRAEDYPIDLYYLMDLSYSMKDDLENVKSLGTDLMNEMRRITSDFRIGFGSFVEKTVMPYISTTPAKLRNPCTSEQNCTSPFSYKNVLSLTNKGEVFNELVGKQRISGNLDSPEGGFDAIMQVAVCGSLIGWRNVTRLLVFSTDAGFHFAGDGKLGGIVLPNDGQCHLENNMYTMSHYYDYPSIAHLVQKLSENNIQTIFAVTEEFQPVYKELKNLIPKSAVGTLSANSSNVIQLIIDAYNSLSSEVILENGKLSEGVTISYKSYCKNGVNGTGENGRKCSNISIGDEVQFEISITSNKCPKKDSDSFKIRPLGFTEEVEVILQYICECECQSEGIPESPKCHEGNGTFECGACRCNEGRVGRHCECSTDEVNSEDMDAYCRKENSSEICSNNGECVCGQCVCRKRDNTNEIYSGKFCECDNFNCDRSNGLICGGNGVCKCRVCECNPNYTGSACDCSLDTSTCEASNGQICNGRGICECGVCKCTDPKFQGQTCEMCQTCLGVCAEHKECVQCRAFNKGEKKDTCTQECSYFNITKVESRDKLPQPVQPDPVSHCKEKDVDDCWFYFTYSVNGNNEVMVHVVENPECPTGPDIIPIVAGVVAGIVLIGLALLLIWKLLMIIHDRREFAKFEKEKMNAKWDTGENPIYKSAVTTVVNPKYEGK

[3] = target: endogenous β1 integrin on HEK293 cells (active state) (human) (UniProt P05556); assay: flow cytometry, HEK293 cells expressing uPAR^S245A
[4] = target: endogenous β1 integrin on HEK293 cells (active state) (human) (UniProt P05556); assay: flow cytometry, vector-transfected HEK293 cells, medium alone
[5] = target: endogenous β1 integrin on HEK293 cells (active state) (human) (UniProt P05556); assay: flow cytometry, vector-transfected HEK293 cells treated with Mn++ (1 mM MnCl2)
[6] = target: α5β1-integrin endogenous on HEK293, D-HEp3 and T-HEp3 cells (human) (UniProt P08648); assay: cell-based or functional assay
α5β1-integrin endogenous on HEK293, D-HEp3 and T-HEp3 cells (human), sequence (P08648 42-1049, chain 1 of 2): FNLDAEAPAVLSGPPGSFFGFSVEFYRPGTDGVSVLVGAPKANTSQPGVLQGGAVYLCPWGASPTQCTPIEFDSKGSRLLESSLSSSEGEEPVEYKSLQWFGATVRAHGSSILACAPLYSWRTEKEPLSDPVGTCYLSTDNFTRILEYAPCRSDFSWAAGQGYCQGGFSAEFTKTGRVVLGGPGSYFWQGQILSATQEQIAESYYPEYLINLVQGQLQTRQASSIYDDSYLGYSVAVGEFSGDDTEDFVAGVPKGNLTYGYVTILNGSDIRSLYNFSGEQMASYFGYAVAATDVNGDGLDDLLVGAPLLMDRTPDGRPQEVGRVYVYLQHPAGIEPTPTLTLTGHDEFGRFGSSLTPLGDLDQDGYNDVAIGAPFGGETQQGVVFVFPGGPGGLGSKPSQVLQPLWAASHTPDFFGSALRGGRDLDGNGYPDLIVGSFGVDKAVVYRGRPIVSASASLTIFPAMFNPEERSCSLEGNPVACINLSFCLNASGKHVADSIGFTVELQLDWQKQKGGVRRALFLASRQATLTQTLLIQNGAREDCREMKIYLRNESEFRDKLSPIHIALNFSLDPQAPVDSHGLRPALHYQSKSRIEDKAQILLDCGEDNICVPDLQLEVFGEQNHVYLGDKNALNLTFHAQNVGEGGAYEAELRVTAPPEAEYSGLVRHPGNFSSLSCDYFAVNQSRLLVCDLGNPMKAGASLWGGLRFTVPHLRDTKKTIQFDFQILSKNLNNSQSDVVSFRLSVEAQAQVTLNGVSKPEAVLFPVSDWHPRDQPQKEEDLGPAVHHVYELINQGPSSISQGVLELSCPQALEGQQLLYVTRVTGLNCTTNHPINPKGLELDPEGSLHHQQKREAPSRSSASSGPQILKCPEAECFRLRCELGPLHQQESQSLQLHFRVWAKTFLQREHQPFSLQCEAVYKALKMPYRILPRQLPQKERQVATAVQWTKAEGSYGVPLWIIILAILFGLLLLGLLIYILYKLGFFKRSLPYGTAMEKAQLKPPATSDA
α5β1-integrin endogenous on HEK293, D-HEp3 and T-HEp3 cells (human), sequence (P05556 21-798, chain 2 of 2, further chain): as the sequence (P05556 21-798) above

[7] = target: T2, purified human α5β1-integrin (Homo sapiens, UniProt P05556+P08648); assay: Solid phase dot-ELISA: α5β1-integrin binding to immobilized uPAR peptides and suPAR; settings: for α5β1-integrin binding to immobilized peptide: peptide immobilized on nitrocellulose, α5β1-integrin 750 ng/ml
T2 construct: purchased Chemicon International (Temecula, Calif.)
T2 sequence (P08648 42-894 limits assumed): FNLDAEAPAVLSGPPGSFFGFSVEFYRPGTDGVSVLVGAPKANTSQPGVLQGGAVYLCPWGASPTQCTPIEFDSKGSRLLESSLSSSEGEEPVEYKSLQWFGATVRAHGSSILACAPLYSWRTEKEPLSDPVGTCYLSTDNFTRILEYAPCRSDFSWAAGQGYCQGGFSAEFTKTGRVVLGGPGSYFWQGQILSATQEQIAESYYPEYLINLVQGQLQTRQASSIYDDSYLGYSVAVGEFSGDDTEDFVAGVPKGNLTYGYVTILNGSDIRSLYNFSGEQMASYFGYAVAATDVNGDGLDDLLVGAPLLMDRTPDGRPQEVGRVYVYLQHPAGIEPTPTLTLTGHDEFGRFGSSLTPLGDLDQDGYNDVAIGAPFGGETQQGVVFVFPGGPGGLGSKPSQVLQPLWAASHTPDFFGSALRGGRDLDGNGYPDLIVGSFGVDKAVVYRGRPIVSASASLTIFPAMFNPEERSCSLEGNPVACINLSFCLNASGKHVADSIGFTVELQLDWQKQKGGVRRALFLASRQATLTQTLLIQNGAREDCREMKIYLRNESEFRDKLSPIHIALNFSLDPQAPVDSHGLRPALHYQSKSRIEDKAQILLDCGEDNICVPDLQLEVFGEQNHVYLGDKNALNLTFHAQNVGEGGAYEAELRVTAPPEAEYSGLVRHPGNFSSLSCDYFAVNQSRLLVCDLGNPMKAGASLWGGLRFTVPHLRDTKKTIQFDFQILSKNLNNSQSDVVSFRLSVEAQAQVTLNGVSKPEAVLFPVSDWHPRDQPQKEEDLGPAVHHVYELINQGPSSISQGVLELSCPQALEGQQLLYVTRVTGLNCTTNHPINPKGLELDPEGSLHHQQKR
T2 sequence (P08648 895-1049 limits assumed): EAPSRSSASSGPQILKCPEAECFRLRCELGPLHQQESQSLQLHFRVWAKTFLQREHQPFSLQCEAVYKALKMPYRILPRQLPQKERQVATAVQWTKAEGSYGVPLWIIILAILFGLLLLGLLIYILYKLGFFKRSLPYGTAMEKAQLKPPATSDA
T2 sequence (P05556 21-798): as the sequence (P05556 21-798) above
Method: FIGS. 1A-H show the interaction between α5β1-integrin and immobilized uPAR and uPAR-derived synthetic peptides through solid-phase dot-ELISA. […] Bound integrin was detected with anti-α5 integrin antibody followed by goat anti-rabbit IgG (H+L) HRP conjugated secondary antibody and developed with enhanced chemiluminescence (“ECL”). FIG. 1B is a graph showing that binding of integrin to suPAR is saturable. SuPAR (1.5 μg) was immobilized on nitrocellulose membrane in triplicates, incubated with 0, 0.1, 0.5, 1, 2, and 4 μg/ml of α5β1-integrin and tested for integrin binding as in FIG. 1A. The dots were scanned with NIH Image. Mean and SE are shown. […] Peptides representing regions located in each of the three uPAR-domains were immobilized, incubated with α5β1-integrin, and analyzed as in FIG. 1A. Only peptide 240-248 binds α5β1-integrin. FIG. 1D is a graph showing that peptide 240-248 inhibits integrin binding to suPAR. The α5β1-integrin (750 ng/ml) was pre-incubated for 15 min at room temperature with 100 fold molar excess of 240-248 or 17-24 peptides, or with no peptide (Control) and the mixtures were applied to immobilized suPAR (1.5 μg), 2 dots per mixture, and developed as in FIG. 1A. The dots were scanned with NIH Image. The results (bars) show % of control, the lines show range. FIG. 1E is a graph showing binding of α5β1- and α3β1-integrin to suPAR and peptide 240-248. Dot-ELISA was performed in duplicate as in FIG. 1A, except that purified α5β1-integrin and α3β1-integrin (750 ng/ml) were used. Bound integrins were detected with the appropriate previously titrated antibodies followed by goat anti-rabbit IgG (H+L) HRP conjugated secondary antibody and detection with ECL. The graph represents the mean and range of two values: α5β1-integrin binding to peptide 240-248 (▪) or SuPAR (▴); α3β1-integrin binding to peptide 240-248 ([…]) and SuPAR (x). […] Peptide 240-248 (domain III), 17-24 (domain I), and the S245A mutant of peptide 240-248 were immobilized and tested for integrin binding as in FIG. 1A. FIGS. 1G-H show the crystal structure of human uPAR shown as a surface representation. The three individual domains of uPAR in FIG. 1G are indicated as follows: D1 is on the right side, DII is on the top of the model, and Diii is on the left of the model. In FIG. 1H, the order of the domains is inversed. […] The location of the COOH-terminal in uPAR domain III harboring the GPI-anchor is indicated by the arrow (FIG. 1H). FIGS. 1G-H were created by the program PyMol (DeLano Scientific) using the coordinates 1YWH.
FIGS. 2A-B show solid phase dot-ELISA of suPAR. […] Binding was detected as in FIG. 1A and the dots were scanned with NIH Image. Mean of the two-scanned value for each suPAR concentration are shown in the bottom panel. Mutation of residues in the 239-249 sequence reduced the integrin binding by ˜50 to 94%. suPAR^E33A (▪), suPAR^wt (▴), suPAR^R239A (♦), suPAR^H249A (x), suPAR^Q248A (∘), suPAR^M246A ([…]), suPAR^S245A (□).
Synthetic uPAR-derived peptides and mutant proteins were diluted to 0.5, 1, and 2 μg/100 μl of PBS. […] The strips, pinned to the bottom of a plastic box, were washed with TBS with 0.1% Tween 20, overlaid with 500 μl of rabbit anti-integrin α5 polyclonal antibody (1:650) for 1 hr at RT, washed with TBST twice, incubated with goat anti-rabbit IgG (H+L) HRP conjugated secondary antibody (1:2000) for 1 hr, washed 3 times with TBST, and developed with ECL. The dots were scanned with NIH image.

β1-integrin = target: T3, β1-integrin (Homo sapiens, UniProt P05556); assay: Detection of active β1 integrin by FACS (HUTS-4 antibody); format: cell-based; settings: vector transfected HEK293 cells; 1 mM MnCl2; untreated 50.9%
T3 construct: endogenous in cells; host or cells: HEK293 cells (ATCC), transiently transfected with pcDNA3.1 vector, uPAR^wt or uPAR^S245A
T3 sequence (P05556 21-798): as above
T3 sequence (P08648 42-894 partner limits assumed): as the sequence (P08648 42-894 limits assumed) above
T3 sequence (P08648 895-1049 partner limits assumed): as the sequence (P08648 895-1049 limits assumed) above
Method: FIGS. 3A-C illustrate that […] expressed in cells has reduced ability to activate α5β1-integrin. […] HEK293 cells were transfected with pcDNA3.1 (vector), uPAR^wt, or uPAR^S245A and used 48 hrs later. Vector-transfected cells incubated with medium alone or with medium with 1 mM MnCl2, followed by HUTS-4 and uPAR-transfected cells (uPAR^wt and uPAR^S245A) incubated with HUTS-4 or isotype matched Ig (IgG2b) were then incubated with secondary rabbit-anti mouse IgG coupled to Alexa 488. uPAR expression was detected using anti-uPAR antibody (R2). In the upper panels, the results are plotted as number of events vs. fluorescence intensity. The numbers indicate percent of total population above the median fluorescence intensity determined in vector-transfected cells. The lower panel relates to overlay of uPAR in uPAR^wt (black line) and uPAR^S245A (grey line) transfected cells. […] Cell-bound fibronectin was detected by immunofluorescence 48 hrs after transfection. […] HEK293 cells plated in 60 mm dishes were transfected and treated as in FIG. 3B, and the DOC-insoluble fibronectin was analyzed by 6% PAGE and Western blot under non-reducing conditions. […]
HEK293 cells were transiently transfected with pcDNA3.1, uPAR^wt, and uPAR^S245. […] Finally, cells were washed and suspended in 400 μl of FACS buffer and analyzed in FACS Canto (Becton Dickinson, Calif.) using FACSDiva software. […]

T-HEp3 cells [8] = assay: Screening of compounds by luciferase assay (Luc-Elk activity as readout for ERK); format: cell-based, human; settings: 5 μM compound, 16 h
Method: To test the effect of uPAR-integrin disruption by uPAR-docked compounds on ERK activation, T-HEp3 cells were transiently co-transfected with pFA-Elk1-fusion plasmid and pD700-luciferase plasmid in a 96-well plate. These plasmids report the state of ERK activation through luciferase activity level. After 24 h of transfection, cells were serum starved for 5 h and incubated with PD98059 (Calbiochem, San Diego, Calif.) (25 and 50 μM) and 5 μM of each compound prepared in DMEM. Following 16 h of incubation with compounds, the cells were lysed directly in Steady glo-luciferase lysis buffer (1:1) from Promega and read on Tecan Safire2™ using Magellan 6.0 software. Histographs representing the percent inhibition of Luc-Elk activity as readout for ERK reduction were generated.

T-HEp3 cells [9] = assay: Fibronectin-fibrils disruption; format: cell-based, human; settings: cells displaying fibronectin fibrils; control had 90.2% fibril positive cells; compounds 5 and 10 μM, 16 h
Method: To test the effects of fibronectin-fibril disruption by the compounds, T-HEp3 cells were incubated in 5% fibronectin-depleted fetal bovine serum (FBS)/DMEM with 0, 2.5, 5, 7, and 10 μM of the compounds or anti-uPAR antibody (R2, 20 μg/ml) or anti-α5β1 antibody (BIIG2, 20 μg/ml) or MEK inhibitor (PD98059, 25 μM) as a […] at room temperature for 15 min prior to plating them in chambered slides. […] The cells were fixed with 3% paraformaldehyde for 20 min and the bound fibronectin was detected using rabbit anti-human fibronectin antibody and with FITC-conjugated secondary antibody.
Compounds MS0012479 and MS0019128 and their analogs were tested for fibronectin-fibril disruption. […] A total of 700 to 1150 cells were counted in 5 individual fields. Cells displaying fibronectin fibrils were then counted and expressed as a percentage of total cells. The mean obtained from the compound-treated cells was expressed as a percentage of control. The control had 90.2% of fibril positive cells (Table 2).

uPAR mutant R239A: purified soluble uPAR single amino acid mutant R239A
koff [1]: 1.48 10^−4 S^−1 | kon [1]: 2.33 10^5 m^−1 S^−1

HUTS-4 antibody
% of population with fluorescence intensity above the median [2]: 74.4% | % of population with fluorescence intensity above the median [3]: 44.6% | % of population with fluorescence intensity above the median [4]: 50.9% | % of population with fluorescence intensity above the median [5]: 86.2%

BIIG2 (α5β1-integrin function blocking antibody)
fibronectin-fibril positive T-HEp3 cells, % of control [6]: 24.1 % of control

66-74: synthetic uPAR-derived peptide, domain I 66-74: LTEVVCGLD (SEQ ID NO:6)
α5β1-integrin binding to immobilized peptide [7]: no binding

uPAR mutant E33A: purified soluble uPAR (residues 1-283) with single amino acid mutation E33A in domain I
α5β1-integrin binding of full-length recombinant suPAR with single amino acid mutation ([7]; suPAR 0.5, 1.0, 2.0 μg immobilized, integrin 750 ng/ml): no effect | koff [1]: 2.19 10^−4 S^−1 | kon [1]: 2.52 10^5 m^−1 S^−1

[Mn+2] [Mn^++]
population with fluorescence above the median (HUTS-4) (β1-integrin): 86.2%

84-95: synthetic uPAR-derived peptide 84-95: AVTYSRSRYLEC (SEQ ID NO:7)
α5β1-integrin binding to immobilized peptide [7]: no binding

108-118: synthetic uPAR-derived peptide, domain II 108-118: GRHQSLQCRSP (SEQ ID NO:8)
α5β1-integrin binding to immobilized peptide [7]: no binding

uPAR mutant H249A: purified soluble uPAR single amino acid mutant H249A
koff [1]: 1.92 10^−4 S^−1 | kon [1]: 3.84 10^5 m^−1 S^−1

N=C(N/N=C\c1cccc(O)c1)c1ccccn1 [MS0019126]
ERK inhibitory activity (T-HEp3 cells [8]): very strong; also recorded: showed ERK inhibitory activity | Quantification (% of control) (T-HEp3 cells [9]): 66.0 % of control

uPAR mutant L66A: soluble uPAR single site mutant L66A, control known to affect uPA-uPAR interaction
koff [1]: 10.6 10^−4 S^−1 | kon [1]: 2.26 10^5 m^−1 S^−1
